Paper PMC3824165

What was measured:
[1] = biological target: host cellular β-tubulin (Vero cells) (African green monkey (endogenous in Vero)); assay: co-IP
[2] = biological target: host cellular β-tubulin (293T cells) (human (endogenous in 293T)) (UniProt P07437); assay: co-IP

3xFLAG-tagged C-terminal half of TgRON4 (TgRON4B) (domain or fragment)
ratio of precipitated TgRON4 to TgRON4 in total membrane fraction [1]: 0.56%
ratio of precipitated TgRON4 to TgRON4 in total membrane fraction [2]: 0.82%

3xFLAG-tagged full-length TgRON4 lacking its putative signal sequence (TgRON4-Full) (from UniProt B6KJ32 27-984) (natural protein)
ratio of precipitated TgRON4 to TgRON4 in total membrane fraction [1]: 1%
